As a reminder, the stoichiometry N is a count of units in the complex or per binding partner.

These results are taken from paper PMC4568377.

Where “and” joins values, the source holds several entries; their conditions need not be identical. Equal entries are not always repeated.

Assay [1] concerns the target His/S-tagged AKAP7γ (human). Description: SPR; Biacore T100; AKAP7γ or AKAP7α amine-coupled to a CM5 chip (150 RU) in separate flow chambers; analytes AKAP7γ or AKAP7α 12.5–200 nM in HBS (10 mM Hepes pH 7.4, 150 mM NaCl, 0.005% Surfactant P20), 30 μL/min, 300 s; heterogeneous analyte model. Background: In SPR one partner is held on a chip, and binding of the other changes the refractive index at the surface.

Assay [2] has as its target AKAP7γ-EGFP (human). Description: photon counting histogram analysis (fluorescence fluctuation); AKAP7γ-EGFP in live HEK-293 cells, cytoplasm; two-component global fit with brightness constrained to monomeric and tandem EGFP; apparent Kd, monomer to dimer; 75 measurements from 5 cells.

In assay [1], His/S-tagged AKAP7γ (natural protein) showed a KD, site 1 (heterogeneous analyte model) of 0.537 nM and a KD, site 2 (heterogeneous analyte model) of 79.7 nM.
For the substance AKAP7γ-EGFP (natural protein), in assay [2], the Kd is 78.8 to 126 nM and 98.4 nM; the percent of the particles detected that are dimer worked out at 20%; the percent of the protein in the dimeric form was 28.7%; the stoichiometry N turned out to be 2.
